Source: PMC3649970, “A Unique Spumavirus Gag N-terminal Domain with Functional Properties of Orthoretroviral Matrix and Capsid” (PLoS Pathogens, 2013)
Substitutions are numbered along the chain they refer to. Ends that are not written are not given here.

B1: PFV-Gag-NtD (amino terminal domain of Prototypic Foamy Virus Gag, residues 1-179) (domain or fragment)
chain: MASGSNVEEYELDVEALVVILRDRNIPRNPLHGEVIGLRLTEGWWGQIERFQMVRLILQDDDNEPLQRPRYEVIQRAVNPHTMFMISGPLAELQLAFQDLDLPEGPLRFGPLANGHYVQGDPYSSSYRPVTMAETAQMTRDELEDVLNTQSEIEIQMINLLELYEVETRALRRQLAERS
notes: source: E. coli Rosetta 2 (DE3), purified (Ni-NTA, Superdex 200 SEC); not shown: His-tag, N-terminal, kept
B2: Val14/Leu21 to serine (protein)
chain: B1 chain with V14S, L21S
modifications: left off: His-tag, N-terminal, state not stated
B3: triple substitution where Val14, Val18 and Leu21 were all substituted by serine (protein, UniProt P14349 1-179, looked up, variant V14S V18S L21S)
chain: B1 chain with V14S, V18S, L21S
modifications: N-terminal His-tag
B4: Asn29 to glutamine (protein, UniProt P14349 1-179, looked up, variant N29Q)
chain: B1 chain with N29Q
modifications: N-terminal His-tag
B5: PFV-Gag-NtD: PFV-Gag residues 1–179, N-terminal His-tag fusion expressed in E. coli (protein, UniProt P14349 1-179, looked up, fragment)
chain: B1 chain
modifications: N-terminal His-tag
notes: PFV-Gag residues 1–179, N-terminal His-tag fusion expressed in E. coli
B6: PFV Env leader peptide residues 5-18 (peptide)
peptide: MTLQQWIIWKKMNK
notes: source: synthetic peptide, bought HPLC purified: Pepceuticals Ltd
B7: FFV-Gag-NtD: FFV Gag residues 1–154, N-terminal His-tag fusion expressed in E. coli (protein, UniProt O56860 1-154, looked up, fragment)
chain: MARELNPLQLQQLYINNGLQPNPGHGDIIAVRFTGGPWGPGDRWARVTIRLQDNTGQPLQVPGYDLEPGIINLREDILIAGPYNLIRTAFLDLEPARGPERHGPFGDGRLQPGDGLSEGFQPITDEEIQAEVGTIGAARNEIRLLREALQRLQA
modifications: N-terminal His-tag
notes: FFV Gag residues 1–154, N-terminal His-tag fusion expressed in E. coli

Tests used:
PFV-Gag-NtD = target: T1, PFV-Gag-NtD (Human spumaretrovirus, UniProt P14349); test: ITC binding of Env1–20 to PFV-Gag-NtD; set-up: species or system Prototypic Foamy Virus (PFV); settings: 1 mM Env peptide injected into 50 µM PFV-Gag-NtD, 25 mM Na-phosphate pH 6.55, 100 mM NaCl, 0.5 mM TCEP, read-out: equilibrium association constant (K) (converted)
T1 construct: HFV ht-(M1-S179); made in house; host or cells: E. coli Rosetta 2 (DE3)
T1 sequence (P14349 1-179): B1 chain
Description: The DNA sequences coding for PFV-Gag residues 1–179 (PFV-Gag-NtD) and FFV residues 1–154 (FFV-Gag-NtD) were amplified by PCR from template plasmids pcziGag4 and pcDWF003 containing the PFV and FFV Gag genes respectively. PCR products were inserted into a pET47b expression vector (Novagen) using ligation independent cloning in order to produce N-terminal His-tag fusions with 3C protease cleavage sites. The correct sequence of expression constructs was verified by automated DNA sequencing (Beckman Coulter Genomics). His-tagged PFV- and FFV-Gag-NtD were expressed in the E. coli strain Rosetta 2 (DE3) and purified using Ni-NTA affinity (Qiagen) and size exclusion chromatography on Superdex 200 (GE healthcare). Selenium was incorporated into PFV-Gag-NtD by replacement of methionine with seleno-methionine in defined culture medium and by inhibition of methionine biosynthesis just prior to IPTG induction. Verification of the processed N-terminal methionine, correct molecular mass and degree of selenium incorporation was obtained by electrospray ionisation mass-spectrometry. Peptides comprising residues 1–20 and 5–18 from the PFV-Env leader region were purchased HPLC purified from Pepceuticals Ltd.
ITC was carried out using an ITC-200 calorimeter (MicroCal). […] Data was analysed using the Origin-based software provided by the manufacturers.

[1] = target: FFV-Gag-NtD (feline foamy virus Gag residues 1-154), His tag removed (feline foamy virus (FFV)); test: AUC
[2] = target: FFV-Gag-NtD (feline foamy virus Gag residues 1-154), His-tagged (feline foamy virus (FFV)); test: AUC
[3] = target: FFV-Gag-NtD (feline foamy virus Gag residues 1-154), His-tagged (feline foamy virus (FFV)); test: SEC-MALS
[4] = target: FFV Env leader peptide 1-30 (Feline foamy virus) (UniProt O56861); test: given as Ka; settings: cited from earlier work
SEC-MALS = target: the molecule itself; test: SEC-MALS
[5] = system: PFV Env leader peptide (Env-LP), Env1–20; test: SV-AUC binding of PFV-Gag-NtD mutants to Env1–20 (Env-LP); set-up: species or system Prototypic Foamy Virus (PFV); settings: for Gag-Env binding (in words): 75 µM equimolar Gag-NtD mutant and Env1–20
Description: (§1) Sedimentation velocity experiments were performed in a Beckman Optima Xl-I analytical ultracentrifuge using conventional aluminium double sector centrepieces and sapphire windows. Solvent density and the protein partial specific volumes were determined as described. Prior to centrifugation, samples were prepared by exhaustive dialysis against the buffer blank solution, 20 mM Tris-HCl, 150 mM NaCl and 0.5 mM TCEP, pH 7.5. Centrifugation was performed at 50,000 rpm and 293 K in an An50-Ti rotor. Interference data were acquired at time intervals of 180 sec at varying sample concentration (0.5–2.5 mg/ml). Data recorded from moving boundaries was analysed using both a discrete species model and in terms of the size distribution functions C(S) using the program SEDFIT [90], [91], [92]. For analysis of Env peptide binding, sedimentation velocity experiments were conducted in 3 mm pathlength centrepieces using equimolar mixtures (75 µM) of PFV-Gag-NtD and Env peptides. In these experiments, radial absorbance scans at 280 nm were also recorded along with the interference data.
Data were analysed using a general binding expression, Eq. 1. This expression relates the association constant Ka to the fraction of bound peptide θ (θ = [PL]/[Lt]) in terms of the total concentrations of peptide [Lt] and protein [Pt] and is a modification of the formulae employed in [95], [96]. [drawing 1] (1) In sedimentation velocity experiments θ was determined from the integrated absorbance of the 3S species in the C(S) function that best fits the sedimentation data. As equimolar ratios of peptide and protein were employed ([Lt] = [Pt]) Eq. 1 can be simplified and equilibrium association constants determined from Eq. 2. [drawing 2] (2)

[6] = SEC-MALLS solution molecular weight of Gag-NtDs; format: physicochemical; settings: Superdex 200 10/300 GL, 20 mM Tris-HCl, 150 mM NaCl, 0.5 mM TCEP, pH 8.0; 12-1.5 mg/ml, concentration invariant
Description: Size exclusion chromatography coupled multi-angle laser light scattering (SEC-MALLS) was used to determine the molar mass of FFV- and PFV-Gag-Ntd. Samples ranging from 1.5 to 12.0 mgml^−1 were applied in a volume of 100 µl to a Superdex 200 10/300 GL column equilibrated in 20 mM Tris-HCl, 150 mM NaCl and 0.5 mM TCEP, pH 8.0, at a flow rate of 0.5 ml/min. The scattered light intensity and the protein concentration of the column eluate were recorded using a DAWN-HELEOS laser photometer and OPTILAB-rEX differential refractometer respectively. The weight-averaged molecular mass of material contained in chromatographic peaks was determined from the combined data from both detectors using the ASTRA software version 6.0.3 (Wyatt Technology Corp., Santa Barbara, CA, USA).

[7] = Sedimentation velocity AUC of Gag-NtDs; format: physicochemical; settings: for ƒ/ƒ0 (D20,w): frictional ratio calculated from D20,w; for ƒ/ƒ0 (D20,w) / ƒ/ƒ0 (S20,w): discrete component analysis; for ƒ/ƒ0 (S20,w): frictional ratio calculated from S20,w; for sedimentation coefficient S20,w: no concentration dependency over the range measured; for D20,w (×10^7) / Mw C(S) / S20,w (×10^13): sedimentation velocity; for D20,w (×10^7) / S20,w (×10^13): 293 K, pH 7.5, Crange 20–90 µM (PFV), 30–130 µM (FFV); for Mw C(S): C(S) analysis; for S20,w (×10^13): discrete component analysis, 50,000 rpm; for Mw (S/D): weight averaged molecular weight from discrete component analysis; for ƒ/ƒ0 C(S): weight-averaged frictional ratio from best fit C(S) distribution function
Description: as §1

[8] = Sedimentation equilibrium AUC of Gag-NtDs; format: physicochemical; settings: for weight averaged molecular weight, sedimentation equilibrium: multispeed, global fit with single ideal molecular species model; for Mw (sedimentation equilibrium): weight averaged, Global SE analysis, pH 7.5
Description: Sedimentation equilibrium experiments were performed in a Beckman Optima XL-I analytical ultracentrifuge using charcoal filled Epon six-channel centrepieces in an An-50 Ti rotor. Prior to centrifugation, samples were dialyzed exhaustively against the buffer blank, 20 mM Tris-HCl, pH 7.5, 150 mM NaCl, 0.5 mM TCEP. After centrifugation for 18 h, interference data was collected 2-h intervals until no further change in the profiles was observed. The rotor speed was then increased and the procedure repeated. Data were collected on samples of different concentrations of FFV- and PFV-Gag-NtD (14–100 µM) at three speeds and the program SEDPHAT [93], [94] was used to determine weight-averaged molecular masses by nonlinear fitting of individual multi-speed equilibrium profiles (A versus r) to a single-species ideal solution model.

[9] = target: T2, PFV-Gag-NtD (amino terminal domain of Prototypic Foamy Virus Gag, residues 1-179) (Prototypic foamy virus (PFV), UniProt P14349 1-179); test: AUC
T2 chain: B1 chain

[10] = target: B1; test: AUC; sedimentation velocity of 75 µM equimolar mixtures of Gag-NtD and Env peptide, absorbance at 280 nm; bound fraction from the integrated absorbance of the 3S species in C(S); settings: both partners purified

MAPPMTLQQWIIWKKMNKAH [Env1–20]
Kd (PFV-Gag-NtD): 6.67 µM

FFV-Gag-NtD (feline foamy virus Gag residues 1-154), His tag removed (domain or fragment)
stoichiometry N [1]: 2

FFV-Gag-NtD (feline foamy virus Gag residues 1-154), His-tagged (domain or fragment)
stoichiometry N [2]: 2
stoichiometry N [3]: 2

FFV Gag (from UniProt O56860)
Kd [4]: 15.4 µM

B1
stoichiometry N (SEC-MALS): 2

B2
reduction of Gag-Env affinity (fold) ([5]; 75 µM equimolar Gag-NtD mutant and Env1–20, relative to wt PFV-Gag-NtD): twenty-fold

B3
Gag-Env binding (in words) [5]: reduced binding to an undetectable level

B4
Gag-Env binding (in words) [5]: little effect on Env binding

B5
solution molecular weight (SEC-MALLS) [6]: 40.0 kDa
ƒ/ƒ0 (D20,w) [7]: 1.52
ƒ/ƒ0 (S20,w) [7]: 1.48
sedimentation coefficient S20,w [7]: 3.08
D20,w (×10^7) [7]: 5.96±0.04 cm^2 sec^−1
Mw C(S) [7]: 48.2±1 kD
S20,w (×10^13) [7]: 3.08±0.02 sec
Mw (S/D) [7]: 46.7±0.2 kD
ƒ/ƒ0 C(S) [7]: 1.54
weight averaged molecular weight, sedimentation equilibrium [8]: 44 kDa
Mw (sedimentation equilibrium) ([8]; Crange 30–100 µM, His-tagged): 44±2 kD

B6
Kd [9]: 49.4 µM
Ka [10]: 20000 M⁻¹

B7
solution molecular weight (SEC-MALLS) [6]: 34.0 kDa
ƒ/ƒ0 (D20,w) [7]: 1.42
ƒ/ƒ0 (S20,w) [7]: 1.49
sedimentation coefficient S20,w [7]: 2.72
D20,w (×10^7) [7]: 6.81±0.3 cm^2 sec^−1
Mw C(S) [7]: 37.4±1 kD
S20,w (×10^13) [7]: 2.72±0.01 sec
Mw (S/D) [7]: 36.1±1.5 kD
ƒ/ƒ0 C(S) [7]: 1.47
weight averaged molecular weight, sedimentation equilibrium [8]: 33.7 kDa
Mw (sedimentation equilibrium) ([8]; Crange 14–50 µM, FFV-154 sample with the His tag removed): ^h33.7±1 kD
